In IntAct's records for PubMed 17875641:

B1: tRNA-specific adenosine deaminase subunit tad3 (Schizosaccharomyces pombe (strain ATCC 38366 / 972)), Q9P7N4 (parent)
chain: MVKTNISKNSPKEATVPELDWPFKLIKSHLETRKLETENVWIACFEPKYASKVTQYVKQIRSKQKESLLHCNRLRRIQDENGSLELQIIICPEKSMTANEIGKDFEDLGIVSKMIFLYAVPAFPPLTDEQFHEWNSVWPVSYRKHVQRQDVFTVHELKRIESILEDLINAAGASHKHGEIGCAAAIYDPTTDTVLAVSVDERSKLKNPINHCVMNAINLVAKRELSRRQNRTDGSKDRYLCKDLTVVMTHEPCVMCSMGLLHSRIRRLIYCKKQPLTGGIESLYGIHWRAELNHRYLAYSGWNKPVPSIKENIHV
partner: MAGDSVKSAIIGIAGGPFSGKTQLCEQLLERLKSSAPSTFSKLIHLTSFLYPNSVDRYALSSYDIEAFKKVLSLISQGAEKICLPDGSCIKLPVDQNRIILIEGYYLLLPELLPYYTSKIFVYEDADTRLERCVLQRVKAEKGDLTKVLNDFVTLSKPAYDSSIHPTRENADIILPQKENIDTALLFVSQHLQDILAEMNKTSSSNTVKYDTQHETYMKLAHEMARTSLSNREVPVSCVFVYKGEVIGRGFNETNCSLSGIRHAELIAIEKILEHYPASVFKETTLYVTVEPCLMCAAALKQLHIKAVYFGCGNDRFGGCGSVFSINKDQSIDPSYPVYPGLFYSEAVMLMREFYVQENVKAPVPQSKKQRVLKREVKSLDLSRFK

Variants of: B1
Conditions: with tad2_schpo tad2, O94642

effect of a mutation on the interaction | Variant
decreasing interaction | S257N
